According to article PMC4412286:

Target: phosphoinositol 3-kinase (PI3-kinase), p85 subunit (human (endogenous in AGS)) (UniProt P27986)
Chain of UniProt P27986 (P27986 whole entry): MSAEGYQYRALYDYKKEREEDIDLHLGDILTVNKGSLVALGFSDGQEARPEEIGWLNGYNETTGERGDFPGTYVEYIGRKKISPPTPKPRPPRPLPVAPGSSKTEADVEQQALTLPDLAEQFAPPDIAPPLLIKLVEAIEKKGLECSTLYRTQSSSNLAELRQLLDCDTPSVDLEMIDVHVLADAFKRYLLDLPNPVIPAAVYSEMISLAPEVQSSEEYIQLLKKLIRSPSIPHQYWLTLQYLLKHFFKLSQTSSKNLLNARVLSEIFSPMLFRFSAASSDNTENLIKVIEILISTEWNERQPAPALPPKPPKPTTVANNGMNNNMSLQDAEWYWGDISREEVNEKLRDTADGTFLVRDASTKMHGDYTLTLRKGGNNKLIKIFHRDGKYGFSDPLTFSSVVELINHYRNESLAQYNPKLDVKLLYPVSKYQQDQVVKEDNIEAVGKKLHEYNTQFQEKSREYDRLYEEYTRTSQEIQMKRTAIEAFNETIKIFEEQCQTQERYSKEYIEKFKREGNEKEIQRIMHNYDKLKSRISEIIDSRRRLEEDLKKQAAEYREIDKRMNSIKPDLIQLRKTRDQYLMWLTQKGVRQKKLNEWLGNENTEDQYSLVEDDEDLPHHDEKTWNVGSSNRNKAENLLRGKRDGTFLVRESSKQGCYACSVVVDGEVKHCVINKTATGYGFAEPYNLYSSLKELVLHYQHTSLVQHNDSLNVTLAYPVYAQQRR

CagA of H. pylori strain 147C with EPIYA B-TPM, HA fusion (natural protein)
phosphorylation of AKT at threonine 308 in AGS cells after 24 h co-culture with the EPIYA isogenic strain (immunoblot, fold): 1.7 fold

CagA of H. pylori strain 147C with EPIYT B-TPM (wild-type 147C sequence), HA fusion (natural protein)
phosphorylation of AKT at threonine 308 in AGS cells after 24 h co-culture with the EPIYT isogenic strain (immunoblot, fold): 2.4 fold
